Results from publication PMC1635730, “Mesothelin-MUC16 binding is a high affinity, N-glycan dependent interaction that facilitates peritoneal metastasis of ovarian tumors” (Molecular Cancer, 2006).
Values joined by “and” are separate entries in the source; they are usually repeats but may differ in a detail not shown here. Equal values may be shown once.

Target: T1, MUC16 expressed on the surface of the ovarian tumor cell line OVCAR-3 (human (endogenous in OVCAR-3), UniProt Q8WXI7 1-14507)
T1 construct: also called cell surface MUC16; MUC16 on OVCAR-3 cells; source: endogenous, on OVCAR-3 cells and the control subline #12
Assay: flow cytometry on cells; OVCAR-3 cells with increasing amounts of meso-Fc for 1 h; mean fluorescence, non-linear regression (GraphPad Prism); apparent Kd
Details: one partner purified

Kd: 5 nM and 5 to 10 nM
B1: recombinant mesothelin tagged with the Fc fragment of rabbit IgG (Fc fusion, human, UniProt Q13421 296-598, looked up)
chain: EVEKTACPSGKKAREIDESLIFYKKWELEACVDAALLATQMDRVNAIPFTYEQLDVLKHKLDELYPQGYPESVIQHLGYLFLKMSPEDIRKWNVTSLETLKALLEVNKGHEMSPQVATLIDRFVKGRGQLDKDTLDTLTAFYPGYLCSLSPEELSSVPPSSIWAVRPQDLDTCDPRQLDVLYPKARLAFQNMNGSEYFVKIQSFLGGAPTEDLKALSQQNVSMDLATFMKLRTDAVLPLTVAEVQKLLGPHVEGLKAEERHRPVRDWILRQRQDDLDTLGLGLQGGIPNGYLVLDLSMQEALS
notes: mesothelin, human, extracellular domain (the 40 kDa fragment of the 70 kDa precursor); GenBank AY743922; Modified pSecTag2 vector containing rabbit IgG Fc; Glycosylated (made in mammalian cells); also called meso-Fc; mesothelin-Fc; source: HEK 293T, transfected, harvested from the culture supernatant, purified (Hi-trap protein A column)
